For data set [1], the system named is Jurkat T-cell leukemia cells. As to the kind of experiment: Fluorescence microscopy binding to cells. As to conditions: without Triton. The format is cell-based, human. As to the method:
(§1) After an overnight incubation cells were gently washed with PBS buffer and fixed with ice-cold 1% (v/v) formaldehyde. After 20 minutes cells were washed with PBS before blocking non-specific binding with a solution of 3% goat serum for 1 hour. To observe the presence of SEAM 3-reactive antigen that is present inside the cells, the cells were treated Triton X-100 0.5% w/v in 3% goat serum for 1 hour. The primary antibodies were added and incubated for 2 hours or overnight at 4° C. Cells were gently washed by a series (at least twice) with ice-cold PBS before isotype-specific secondary antibody (produced in goat) conjugated with either Alexa Fluor 488 (immunofluorescence and confocal), Alexa Fluor 546 (confocal) Alexa Fluor 594 (immunofluorescence), Alexa Fluor 633 (confocal) was applied for at least 1 hour at 4° C. in the dark (all secondary antibodies conjugated to fluorophores were obtained from Invitrogen, Carlsbad, Calif.). After another series of gentle washes, a hardening mounting medium containing DAPI was applied.
(§2) Confocal images were obtained using a Zeiss Meta510 CLSM at the Biological Imaging Facility, University of California, Berkeley, Calif. and were analyzed using ImageJ Software (NIH). Control antibodies and secondary antibodies applied alone were routinely used to assess background fluorescence.

The subject of data set [2] is human tumors. As to the kind of experiment: Immunohistochemistry on formalin-fixed paraffin embedded tissue microarrays of human tumors. Particulars: primary antibody 1 to 5 μg/ml; 47 human tumors. As to the method:
Initial immunohistochemical analysis of antigens recognized by SEAM 3 was performed on unfixed tissues out of concern that the de-N-acetyl amino groups could be blocked by reaction with formaldehyde (vide supra). Subsequently, it was determined that the amino group in de-N-acetyl sialic acid is relatively unreactive as a result of its close proximity to the C1 carboxyl group. Therefore, large scale screening of human tumors for the presence of SEAM 3-reactive antigens was performed using formalin-fixed paraffin embedded tissue sections since processing the samples by this method considerably improves the preservation of cell structural features.
Human tissue microarrays were obtained from US BioMax (Rockville, Md.). The tissue microarrays were deparaffinized in xylene (2 changes, 10 minutes each) then rehydrated by sequential 5 minute washes in 100% ethanol, 95% ethanol, 70% ethanol, 50% ethanol, and PBS buffer. Endogenous peroxidase was blocked by incubation with Peroxidazed 1 solution (Biocare, Concord, Calif.) for 5 minutes at ambient temperature. The sections were blocked with Terminator (Biocare) containing streptavidin then rinsed with PBS buffer. […]

Data set [3] deals with SK-MEL 28 melanoma cells. As to the kind of experiment: Flow cytometry binding to cells. The class given is cell-based, human. As for the experimental part:
(§3) Cells (approximately 10^5 per well) were plated onto a flat bottom 96-well tissue culture plate (Nunc) and incubated with growth medium overnight before assay. Cells were detached from the plate by either trypsin (SK-MEL-28) or CDR (CHP-134) before being collected into a 96-round bottom plate, spun at 500 g for 5 minutes and fixed with ice-cold 1% (v/v) formaldehyde. After 20 minutes cells were pelleted by centrifugation (above) and incubated a blocking solution of 3% (v/v) goat serum with and without Triton X-100 (0.5% w/v) for 1 hour. After which the primary antibodies were added and incubated for 2 h or overnight at 4° C. The cells were washed twice by pelleting and resuspension in ice-cold PBS. Secondary antibody (Invitrogen, as described above) was incubated with the cells for at least 1 hour at 4° C. in the dark. After another series of spins and washes (3 times) binding was analyzed by a Guava EastCyte flow cytometer. Control samples were treated with an isotype matched irrelevant antibody (Southern Biotech), which were used to create baseline fluorescence, or positive control mAbs that are reactive with antigens specifically expressed by the cells (i.e. anti-GD3 for SK-MEL 28 cells and anti-NCAM in CHP-134 cells). In addition, specificity of binding was shown for the Jurkat cells by preincubating SEAM 3 with 50 μg/ml N-Pr NmB PS prior to adding the mAb to the cells.

For data set [4], the system named is CHP-134 neuroblastoma cells. As to the kind of experiment: Flow cytometry binding to cells. The class given is cell-based, human. As to the method: as §3
(Flow cytometry measures light scatter and fluorescence of single cells or particles in a stream.)

Data set [5] deals with Jurkat T-cell leukemia cells. As to the kind of experiment: Flow cytometry binding to cells. The class given is cell-based, human. As for the experimental part: as §3
The subject of data set [6] is Jurkat cells (acute lymphoblastic T-cell leukemia). Particulars: approximately proportional to level of antigen on cell surface.
Data set [7] relates to SK-MEL 28 cells. As to the kind of experiment: Cell cycle analysis by propidium iodide staining and flow cytometry. The class given is cell-based, human. Particulars: 48 h incubation. As to the method:
To further assess the affect of SEAM 3 mAb on cell growth, the stage of the cell cycle after treatment with SEAM 3 was determined. In this experiment, the cells were stained with the fluorescent DNA binding dye propidium iodide to characterize cell populations in various stages of the cell cycle and the effects of adding control antibodies, nocodazole (a drug that arrest the cells in mitosis) and SEAM 3.
Approximately 10^5 SK-MEL 28 cells were plated on a 96-well tissue culture plate and allowed to adhere. After 24 h the medium was replaced with one that had either antibody or drug and incubated for a further 48 h. Cells were spun (to collect any cells that may have detached), and fixed in 70% ice-cold methanol (added drop wise) for at least 30 minutes at 4° C. The cells were washed twice with PBS, and to ensure that only DNA was stained, the fixed cells were treated with ribonuclease I (100 μg/ml, source) for 30 minutes at 37° C. Propidium iodide (50 μg/ml) was added and samples were analyzed using a Guava EasyCyte flow cytometer.

Data set [8] has as its system SK-MEL-28 melanoma cells. As to the kind of experiment: Fluorescence / confocal microscopy binding to cells. The format is cell-based, human. Particulars: without Triton. As for the experimental part: as §1, §2
In data set [9] the test system is CHP-134 neuroblastoma cells. The data set is described as above. The format is cell-based, human. As to conditions: without Triton. As to the method: as §1, §2

B1: SEAM 3: murine anti-N-Pr NmB polysaccharide monoclonal antibody (IgG2b), ATCC Deposit No. HB-12170 (antibody, V domains shown)
VH: EVKLQESGGGLVQPGDSLSLSCAASGFTFTPYYMGWVRQPPGKALEWLGYIRNKANGYTTEYSASVKGRFTISRDNSQSILYLQMNALRAEDSATYYCARYARGTVDSWGQGTTLTVS
VL: DIVMTQSPLTLSVTIGQPASISCKSSQSLLHSNGKTYLNWLLQRPGQSPKLLIYLVSKLESGVPDRFSGSGSGTDFTLKISRVEAEDLGLYYCLQIIHFPHTFGAGTKLELKRA
modifications: mouse
B1: the “binding to cell surface by microscopy” value in [1], in [8] and in data set [9] was “fluorescence is uniform over the cell surface” throughout. The “tumor samples positive for binding” value in [2] is recorded as 38 of 47. Besides, the “binding to internal antigen by flow cytometry” value in data set [3] (+Triton X-100), in data set [4] (+Triton X-100) and in [5] (+Triton X-100) was “larger amounts of internal SEAM 3-reactive antigen” each time. Further, the entries for the “binding to cell surface by flow cytometry” value in data set [3] (−Triton), in data set [4] (−Triton) and in [5] (−Triton) were “binds to the surface of all three cell lines”, “greatest amount of binding” and “least”, respectively. Also, the cytotoxic effect result in data set [6] was “cytotoxic effect of SEAM 3 was observed”. Besides, the “effect on cell cycle phase distribution” value in [7] was “reduced the proportion of cells in Go, S-phase and G2/M Phase, while increasing the number in pre-Go”.

Source of the values: patent US9872921B2, “DE-N-acetyl sialic acid antigens, antibodies thereto, and methods of use in cancer therapy” (priority 2004, dated 2018).
